Where a chain is given by its changes, count along the chain named. Names and notes keep the numbering of the source.
B1: H7.5 Fab H-M73R (Fab, V domains shown)
VH: QVQLVQSGAEVKKPGASVKVSCKASGYTLTRYYFHWVRQAPGQGFEWMGIINPNGGGTSYAQKFGDRVIMTSDRSTSTIYMELSSLRSEDTAVYYCARDMPYYHDSGGPLFDLWGQGTLVTVSS
VL: EIVMTQSPSSLSASVGDRVTITCRPSQSISTFLNWYEQKPGKAPKLLIYDASSLQSGVPSRFSGSGSGTEFTLTISSLQPEDFATYYCQQSFSTPYTFGQGTRLEIK
B2: H7.5 Fab L-Y96A (Fab, V domains shown)
VH: B1 VH with R74M
VL: B1 VL with Y96A
B3: H7.5 Fab L-T94Q (Fab, V domains shown)
VH: B1 VH with R74M
VL: B1 VL with T94Q
B4: H7.5 Fab H-T57A (Fab, V domains shown)
VH: B1 VH with T58A, R74M
VL: B1 VL
B5: H7.5 Fab H-S74K (Fab, V domains shown)
VH: B1 VH with R74M, S75K
VL: B1 VL
B6: H7.5 Fab H-S58W (Fab, V domains shown)
VH: B1 VH with S59W, R74M
VL: B1 VL

Molecular target: H7 Sh2 HA (A/Shanghai/2/2013), ectodomain trimer, cleavage state not stated (influenza A virus (A/Shanghai/2/2013))
Assay: BLI

Going from B1 to B2, the Kd rises from < 0.1 nM to 549 nM. The first binds more tightly here.

First: B3
Second: B4
The Kd of the first is higher: > 1000 nM for the first, 116 nM for the second. The second binds more tightly here.

First: B5
Second: B6
The Kd of the first is lower: < 0.1 nM for the first, > 1000 nM for the second.

Reference: publication PMC6375650 (2019)
